Reference: US20260226104A1 (Dana-Farber, published 2026)
Where a chain is given by its changes, count along the chain named. Numbers in names are those of the source. One block for each binder: values may come before it. Bridges are numbered along the chain shown (N, C = ends). Where no end group is shown, it is not given here. [ ]: non-standard residue; d: D form. The star is where a group is joined. D‑NA = N-terminal D-nipecotic acid moiety terminating in acrylamide (cysteine-reactive warhead); Biotin = O=C1N[C@H]2[C@H](CS[C@H]2CCCCC(=O)*)N1; R8 = C=CCCCCCC[C@@](C)(N)C(=O)O; S5 = C=CCCC[C@](C)(N)C(=O)O

Legend:
[1] = target: T1, His-BFL-1ΔC C4S/C19S (human, UniProt Q16548 1-151); test: competitive fluorescence polarization against FITC-BID BH3
T1 construct: also called BFL-1 C4S/C19S; not shown: N-terminal hexahistidine tag (pET17b)
T1 chain: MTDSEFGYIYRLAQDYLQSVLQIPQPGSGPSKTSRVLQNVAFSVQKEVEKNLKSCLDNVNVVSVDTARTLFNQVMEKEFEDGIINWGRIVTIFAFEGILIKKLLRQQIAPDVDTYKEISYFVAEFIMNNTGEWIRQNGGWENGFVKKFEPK
Method: (§1) The warhead-bearing D-NA-NOXA-15 R31E SAHB was only able to compete with FITC-BID BH3 for binding to BFL-1ΔC C4S/C19S (FIG. 20), and this activity was dependent on the presence of Cys55 in the BH3-binding pocket, as this effect was not observed with BFL-1ΔC C4S/C19S/C55S (FIG. 21).
(§2) Fluorescence polarization (FP) assays were performed as previously described (Pitter et al., 2008 (supra)). Briefly, direct binding curves were first generated by FITC-BID BH3 (25 nM) with serial dilutions of anti-apoptotic protein, and FP was measured at 5 min on a SpectraMax M5 microplate reader (Molecular Devices). For competition assays, a serial dilution of acetylated or warhead-bearing NOXA SAHB was added to the indicated recombinant protein at ~EC75 concentration, as determined by the direct binding assay. FITC-BID BH3 (25 nM) was then added and fluorescence polarization was measured at equilibrium. IC50 values were calculated by nonlinear regression analysis of competitive binding curves using PRISM software (GraphPad).

[2] = target: T2, MCL-1ΔNΔC (human, UniProt Q07820 172-329); test: as above
T2 construct: As printed for the fluorescence polarization assay
T2 sequence (Q07820 172-329, stated change not applied): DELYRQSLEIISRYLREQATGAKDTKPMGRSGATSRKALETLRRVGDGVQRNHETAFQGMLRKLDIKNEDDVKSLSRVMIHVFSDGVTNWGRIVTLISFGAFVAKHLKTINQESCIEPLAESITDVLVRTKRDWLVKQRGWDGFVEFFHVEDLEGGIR
Method: as §1, §2

[3] = target: T3, His-BFL-1ΔC (human, UniProt Q16548 1-151); test: in vitro covalent conjugation; reducing and denaturing gel electrophoresis
T3 construct: also called WT His-BFL-1ΔC; wild-type BFL-1 construct; not shown: N-terminal hexahistidine tag (pET17b)
T3 sequence: T1 chain with S4C, S19C

[4] = target: T4, recombinant full-length BFL-1 (human, UniProt Q16548 1-175); test: as above
T4 construct: not shown: N-terminal hexahistidine tag
T4 sequence: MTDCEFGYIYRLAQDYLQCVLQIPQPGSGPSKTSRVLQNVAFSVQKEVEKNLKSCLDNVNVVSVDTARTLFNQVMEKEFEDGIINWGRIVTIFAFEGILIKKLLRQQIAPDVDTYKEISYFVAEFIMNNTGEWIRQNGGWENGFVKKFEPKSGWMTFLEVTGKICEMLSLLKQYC

[5] = target: T5, full length HA-BFL1 (human, UniProt Q16548 1-175); test: 293T cells treated with 20 µM NOXA SAHB for 12 hours; anti-HA western of lysates
T5 construct: also called HA-tagged full-length BFL-1; expressed full-length BFL-1; not shown: HA tag
T5 sequence: T4 sequence
From the text: Of note, native BFL-1 runs at a higher molecular weight than recombinant or expressed BFL-1.

[6] = target: T3, His-BFL-1ΔC; test: streptavidin pull-down of biotinylated SAHB from an equimolar mixture of recombinant GST-MCL-1ΔNΔC, BCL-XLΔC and His-BFL-1ΔC; silver stain
Method: The biotinylated D-NA-NOXA-15 F32A SAHB or corresponding acetylated construct was incubated in an equimolar mixture with recombinant BFL-1, BCL-XL, and MCL-1, and then subjected to streptavidin pull-down. […] Additionally, the preferential interactions of these peptides were assessed with endogenous protein in lysates from the A375P melanoma cell line.
WT His-BFL-1ΔC, BCL-XLΔC (tagless), and GST-MCL-1ΔNΔC (1 μM each) were combined and incubated with 3 mM DTT in PBS for thirty minutes at room temperature. Mixtures were treated with vehicle or the indicated C-terminally biotinylated NOXA SAHB (1 μM) for four hours and were then added to 30 μL PBS-washed high-capacity streptavidin (SA) agarose beads (Thermo Fisher Pierce) and incubated with rotation at room temperature for two hours. The beads were then washed three times with NP-40 lysis buffer (1% NP-40, 50 mM Tris pH 8, 100 mM NaCl, 2.5 mM MgCl2) and three times with PBS. To elute bound protein, beads were boiled for ten minutes with 10% SDS containing 10 mg/mL biotin. After elution, samples were boiled with 3×LDS and 2M DTT for twenty minutes. Gel electrophoresis using a 12% Bis-Tris gel was conducted on inputs (2%) and eluates ([…]) and gels were developed using the Pierce silver staining kit (Thermo Fisher).

binding result [1]: binds
binding result [2]: binds
binding result [3]: binds
binding result [4]: binds
binding result [5]: binds
B1: D-NA-NOXA-15 R31E (peptide)
peptide: {D‑NA}-AT[R8]LREFGD[S5]LNFRQ
modifications: staple 3-10
notes: also called D-NA-NOXA SAHB-15 R31E; cysteine-reactive NOXA-15 R31E SAHB

binding result [6]: no binding (tested: 1 µM)
B2: biotinylated Ac-NOXA-15 R31E SAHB (peptide)
peptide: Ac-AT[R8]LREFGD[S5]LNFRQK(Biotin)
modifications: staple 3-10
notes: also called acetylated counterpart of D-NA-NOXA-15 R31E

binding result [3]: binds
binding result [4]: binds
binding result [5]: binds
B3: D-NA-NOXA-15 F32A (peptide)
peptide: {D‑NA}-AT[R8]LRRAGD[S5]LNFRQ
modifications: staple 3-10
notes: also called D-NA-NOXA SAHB-15 F32A; cysteine-reactive NOXA-15 F32A SAHB

binding result [2]: binds
B4: Ac-NOXA-15 R31E (peptide)
peptide: Ac-AT[R8]LREFGD[S5]LNFRQ
modifications: staple 3-10
notes: also called acetylated NOXA-15 R31E SAHB; acetylated counterpart of D-NA-NOXA-15 R31E
